Reference: patent publication US20260151494A1 (ARO BIOTHERAPEUTICS, published 2026)

Experiments:
[1] = target: T1, human CD71 extracellular domain (human, UniProt P02786 89-760); test: primary ELISA of colonies, luminescence
T1 construct: also called hCD71; human CD71-ECD

[2] = target: T2, apical domain of human CD71 (human, UniProt P02786 189-383, limits assumed); test: primary ELISA of colonies, luminescence
T2 construct: domain: apical domain; the panning antigen was 30% biotinylated; also called human apical domain of CD71
T2 sequence (P02786 189-383 limits assumed): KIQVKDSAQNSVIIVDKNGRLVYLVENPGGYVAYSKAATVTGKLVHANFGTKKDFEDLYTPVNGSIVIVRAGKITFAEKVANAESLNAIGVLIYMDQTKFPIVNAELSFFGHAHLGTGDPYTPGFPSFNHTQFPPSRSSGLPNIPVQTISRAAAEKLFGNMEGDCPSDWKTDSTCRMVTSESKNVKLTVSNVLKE

[3] = target: T1, human CD71 extracellular domain; test: primary ELISA; signal on hCD71 over signal on HSA
[4] = target: T2, apical domain of human CD71; test: primary ELISA; signal on apical domain over signal on HSA
[5] = target: human CD71 on cells (SKBR3; SW620-rLuc-KRAS) (human, UniProt P02786 1-760); test: cell-based or functional assay
Chain of human CD71 on cells (SKBR3; SW620-rLuc-KRAS) (P02786 whole entry): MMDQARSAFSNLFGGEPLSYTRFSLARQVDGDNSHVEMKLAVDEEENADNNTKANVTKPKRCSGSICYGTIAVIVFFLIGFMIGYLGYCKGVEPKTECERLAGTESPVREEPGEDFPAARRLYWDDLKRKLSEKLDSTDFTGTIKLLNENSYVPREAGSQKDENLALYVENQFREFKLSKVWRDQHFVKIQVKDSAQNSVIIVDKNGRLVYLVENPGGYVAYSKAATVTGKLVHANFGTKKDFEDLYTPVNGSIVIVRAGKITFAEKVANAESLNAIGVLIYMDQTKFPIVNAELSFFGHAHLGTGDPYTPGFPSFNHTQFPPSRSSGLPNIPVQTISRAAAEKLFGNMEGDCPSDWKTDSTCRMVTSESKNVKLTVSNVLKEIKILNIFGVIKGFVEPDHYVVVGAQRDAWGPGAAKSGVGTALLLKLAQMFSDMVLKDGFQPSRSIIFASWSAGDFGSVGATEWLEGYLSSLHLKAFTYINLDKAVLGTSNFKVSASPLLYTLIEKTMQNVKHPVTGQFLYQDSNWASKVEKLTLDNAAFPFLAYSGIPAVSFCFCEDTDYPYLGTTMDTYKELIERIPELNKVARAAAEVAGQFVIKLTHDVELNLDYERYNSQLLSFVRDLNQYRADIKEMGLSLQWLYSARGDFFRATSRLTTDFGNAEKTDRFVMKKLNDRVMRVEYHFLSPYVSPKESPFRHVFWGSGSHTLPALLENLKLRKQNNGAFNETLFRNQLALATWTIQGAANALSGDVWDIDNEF

T1 sequence (P02786 89-760): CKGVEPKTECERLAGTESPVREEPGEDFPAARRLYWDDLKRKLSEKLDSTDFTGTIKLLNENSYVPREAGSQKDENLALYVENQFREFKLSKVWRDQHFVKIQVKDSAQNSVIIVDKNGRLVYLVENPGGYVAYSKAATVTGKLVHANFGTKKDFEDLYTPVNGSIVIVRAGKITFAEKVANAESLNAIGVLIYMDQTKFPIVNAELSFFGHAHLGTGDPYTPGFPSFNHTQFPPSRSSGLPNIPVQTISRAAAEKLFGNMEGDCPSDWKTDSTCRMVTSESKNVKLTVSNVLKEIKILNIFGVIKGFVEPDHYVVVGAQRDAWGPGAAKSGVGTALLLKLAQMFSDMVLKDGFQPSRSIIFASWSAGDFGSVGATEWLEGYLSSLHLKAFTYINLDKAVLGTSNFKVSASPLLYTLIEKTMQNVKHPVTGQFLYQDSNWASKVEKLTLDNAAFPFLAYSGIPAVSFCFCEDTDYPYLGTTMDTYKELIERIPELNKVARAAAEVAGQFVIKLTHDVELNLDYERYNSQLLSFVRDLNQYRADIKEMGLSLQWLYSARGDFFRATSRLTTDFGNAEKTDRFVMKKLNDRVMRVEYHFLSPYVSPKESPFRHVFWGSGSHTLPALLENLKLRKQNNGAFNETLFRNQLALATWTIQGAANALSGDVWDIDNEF

Binder	hCD71, RLU [1]	Apical domain, RLU [2]	hCD71:HSA [3]	Apical domain:HSA [4]	LSA EC50 (luciferase reporter assay, SW620-rLuc-KRAS cells, 72 h) [5]
CD71-binding FN3 domain of SEQ ID NO: 101 (designed binder, Screen 1 hit, tested from colonies in the primary ELISA; not shown: C-terminal poly-histidine tag added to each FN3 domain) MLPAPKNLVVSRVTEDSARLSWTAPDAAFDSFGIGYWERRWYGEAIVLTVPGSERSYDLTGLKPGTEYEVTIRGVKGGGYSGPLSAIFTT	340000 RLU	542000 RLU	78 ratio	125 ratio	–
CD71-binding FN3 domain of SEQ ID NO: 105 (designed binder, Screen 1 hit, tested from colonies in the primary ELISA; not shown: C-terminal poly-histidine tag added to each FN3 domain) MLPAPKNLVVSRVTEDSARLSWTAPDAAFDSFHIVYHEPRPSGEAIWLWVPGSERSYDLTGLKPGTEYEVGIVSVKGGDLSVPLSAIFTT	1.51e+06 RLU	3.84e+06 RLU	503 ratio	1280 ratio	–
CD71-binding FN3 domain of SEQ ID NO: 110 (designed binder, Screen 1 hit, tested from colonies in the primary ELISA; not shown: C-terminal poly-histidine tag added to each FN3 domain) MLPAPKNLVVSRVTEDSARLSWTAPDAAFDSFHIVYHEPRPSGEAIYLEVPGSERSYDLTGLKPGTEYEVGIVSVKGGDLSVPLRAHFTT	5.17e+06 RLU	6e+06 RLU	2070 ratio	2400 ratio	–
CD71-binding FN3 domain of SEQ ID NO: 114 (designed binder, Screen 1 hit, tested from colonies in the primary ELISA; not shown: C-terminal poly-histidine tag added to each FN3 domain) MLPAPKNLVVSRVTEDSARLSWTAPDAAFDSFHIVYHEPRPSGEAIWLFVPGSERSYDLTGLKPGTEYEVGIVSVKGGDLSVPLSAIFTT	1.5e+06 RLU	3.59e+06 RLU	130 ratio	311 ratio	–
CD71-binding FN3 domain of SEQ ID NO: 100 (designed binder, Screen 1 hit, tested from colonies in the primary ELISA; not shown: C-terminal poly-histidine tag added to each FN3 domain) MLPAPKNLVVSRVTEDSARLSWTAPDAAFDSFYIAYAEPRPDGEAILLLVPGSERSYDLTGLKPGTEYSVLIHGVKGGLLSSPLVASFTT	6.95e+06 RLU	6.1e+06 RLU	897 ratio	787 ratio	–
CD71-binding FN3 domain of SEQ ID NO: 108 (designed binder, Screen 1 hit, tested from colonies in the primary ELISA; not shown: C-terminal poly-histidine tag added to each FN3 domain) MLPAPKNLVVSRVTEDSARLSWTAPDAAFDSFYIAYAEPRPDGEAILLQVPGSERSYDLTGLKPGTEYSVLIHGVKGGLLSSPLVAKFTT	3.81e+06 RLU	5.77e+06 RLU	1140 ratio	1720 ratio	–
CD71-binding FN3 domain of SEQ ID NO: 106 (designed binder, Screen 1 hit, tested from colonies in the primary ELISA; not shown: C-terminal poly-histidine tag added to each FN3 domain) MLPAPKNLVVSRVTEDSARLSWTAPDAVFDSFYIAYAEPRPDGEAIGLYVPGSERSYDLTGLKPGTEYSVLIHGVKGGLLSSPLTASFTT	3.13e+06 RLU	4.81e+06 RLU	1230 ratio	1890 ratio	–
CD71-binding FN3 domain of SEQ ID NO: 118 (designed binder, Screen 1 hit, tested from colonies in the primary ELISA; not shown: C-terminal poly-histidine tag added to each FN3 domain) MLPAPKNLVVSRVTEDSARLSWTAPDAAFDSFYIAYAEPRPDGEAITLWVPGSERSYDLTGLKPGTEYSVTIHGVKGGLLSSPLSAIFTT	641000 RLU	3.75e+06 RLU	200 ratio	1170 ratio	–
CD71-binding FN3 domain of SEQ ID NO: 116 (designed binder, Screen 1 hit, tested from colonies in the primary ELISA; not shown: C-terminal poly-histidine tag added to each FN3 domain) MLPAPKNLVVSRVTEDSARLSWTAPDAAFDSFYIAYAEPRPDGEAILLLVPGSERSYDLTGLKPGTEYSVLIHGVKGGLLSSPLIAGFTT	4.05e+06 RLU	6.06e+06 RLU	1470 ratio	2200 ratio	–
CD71-binding FN3 domain of SEQ ID NO: 103 (designed binder, Screen 1 hit, tested from colonies in the primary ELISA; not shown: C-terminal poly-histidine tag added to each FN3 domain) MLPAPKNLVVSRVTEDSARLSWTAPDAAFDSFYIAYAEPRPDGEAIILGVPGSERSYDLTGLKPGTEYSVLIHGVKGGLLSSPLSAYSTT	6.37e+06 RLU	5.3e+06 RLU	350 ratio	291 ratio	–
CD71-binding FN3 domain of SEQ ID NO: 102 (designed binder, Screen 1 hit, tested from colonies in the primary ELISA; not shown: C-terminal poly-histidine tag added to each FN3 domain) MLPAPKNLVVSRVTEDSARLSWTAPDAAFDSFDIGYTEYGGYGEAIILQVPGSERSYDLTGLKPGTEYWVLIQGVKGGGSSVPLVAYFTT	308000 RLU	5.87e+06 RLU	68 ratio	1290 ratio	–
CD71-binding FN3 domain of SEQ ID NO: 234 conjugated to KRAS2 siRNA (designed binder, conjugated to KRAS2 tool siRNA; site and linker not stated) MSLPAPKNLVVSRVTEDSARLSWTAPDAAFDSFFIGYLEPQPPGEAIALYVPGSERSYDLTGLKPGTEYNVTIQGVKGGFPSEPLVAHFTT	–	–	–	–	0.63 nM
CD71-binding FN3 domain of SEQ ID NO: 270 conjugated to KRAS2 siRNA (designed binder, conjugated to KRAS2 tool siRNA; site and linker not stated) MSLPAPKNLVVSRVTEDSARLSWTAPDAAFDSFFIGYLEPQPPGEAIHLYVPGSERSYDLTGLKPGTEYNVTIQGVKGGFPSEPLIANSTT	–	–	–	–	2.1 nM
CD71-binding FN3 domain of SEQ ID NO: 331 conjugated to KRAS2 siRNA (designed binder, conjugated to KRAS2 tool siRNA; site and linker not stated) MSLPAPKNLVVSRVTEDSARLSWTAPDAAFDSFFIGYLEPQPPGEAIHLYVPGSERSYDLTGLKPGTEYNVTIQGVKVGFPSEPLIANFTT	–	–	–	–	0.75 nM
CD71-binding FN3 domain of SEQ ID NO: 264 conjugated to KRAS2 siRNA (designed binder, conjugated to KRAS2 tool siRNA; site and linker not stated) MSLPAPKNLVVSRVTEDSARLSWTAPDAAFDSFFIGYLEPQPPGEAIALYVPGSERSYDLTGLKPGTEYNVTIQGVKGGFPSEPLVVHFTT	–	–	–	–	0.45 nM
CD71-binding FN3 domain of SEQ ID NO: 290 conjugated to KRAS2 siRNA (designed binder, conjugated to KRAS2 tool siRNA; site and linker not stated) MSLPAPKNLVVSRVTEDSARLSWTAPDAAFDSFFIGYLEPQPPGEAIHLYVPGSERSYDLTGLKPGTEYNVTIQGVKGGFPSEPLVATFTT	–	–	–	–	0.57 nM
CD71-binding FN3 domain of SEQ ID NO: 972 conjugated to KRAS2 siRNA (designed binder, conjugated to KRAS2 tool siRNA; site and linker not stated) MSLPAPKNLVVSRVTEDSARLSWTAPDAAFDSFFIGYLEPQPPGEAIALYVPGSERSYDLTGLKPGTEYNVTIQGAKGGFPSEPLVVHFTT	–	–	–	–	0.49 nM
CD71-binding FN3 domain of SEQ ID NO: 333 conjugated to KRAS2 siRNA (designed binder, conjugated to KRAS2 tool siRNA; site and linker not stated) MSLPAPENLVVSRVTEDSARLSWTAPDAAFDSFFIGYLEPQPPGEAIALYVPGSERSYDLTGLKPGTEYNVTIQGVKGGFPSLPLVATFTT	–	–	–	–	0.58 nM
CD71-binding FN3 domain of SEQ ID NO: 974 conjugated to KRAS2 siRNA (designed binder, conjugated to KRAS2 tool siRNA; site and linker not stated) MSLPAPKNLVVSRVTEDSARLSWTAPDAAFDSFFIGYLEPQPPGEAIALYVPGSERSYDLTGLKPGTEYNVTIQGVKGGFPSLPLVATFTT	–	–	–	–	0.53 nM
CD71-binding FN3 domain of SEQ ID NO: 295 conjugated to KRAS2 siRNA (designed binder, conjugated to KRAS2 tool siRNA; site and linker not stated) MSLPAPKNLVVSRVTEDSARLSWTAPDAAFDSFFIGYLEPQPPGEAIDLYVPGSERSYDLTGLKPGTEYNVTIQGVKGGFPSEPLVATFTT	–	–	–	–	0.47 nM
CD71-binding FN3 domain of SEQ ID NO: 335 conjugated to KRAS2 siRNA (designed binder, conjugated to KRAS2 tool siRNA; site and linker not stated) MSLPAPKNLVVSRVTEDSARLSWTAPDAAFDSFFIGYLEPQPPGEAIDLYVPGSERSYDLTGLKPGTEYNVTIQGVKGGFPSLPLVATFTT	–	–	–	–	0.47 nM
CD71-binding FN3 domain of SEQ ID NO: 973 conjugated to KRAS2 siRNA (designed binder, conjugated to KRAS2 tool siRNA; site and linker not stated) MSLPAPKNLVVSRVTEDSARLSWTAPDAAFDSFFIGYLEPQPPGEAIHLYVPGSERSYDLTGLKPGTEYNGTIQGVKVGFPSEPLIANFTT	–	–	–	–	0.48 nM
CD71-binding FN3 domain of SEQ ID NO: 281 conjugated to KRAS2 siRNA (designed binder, conjugated to KRAS2 tool siRNA; site and linker not stated) MSLPAPKNLVVSRVTEDSARLSWTAPDAAFDSFFIGYLEPQPPGEAIALYVPGSERSYDLTGLKPGTEYNVTIQGVKGGFPSEPLIANFTT	–	–	–	–	0.39 nM
CD71-binding FN3 domain of SEQ ID NO: 293 conjugated to KRAS2 siRNA (designed binder, conjugated to KRAS2 tool siRNA; site and linker not stated) MSLPAPKNLVVSRVTEDSARLSWTAPDAAFDSFFIGYLEPQPPGEAIDLYVPGSERSYDLTGLKPGTEYNVTIQGVKGGFPSHPLVATFTT	–	–	–	–	0.54 nM
